According to article doi:10.1101/2024.03.04.583305:

Assays:
Assay in all cases: EMSA
[1] = biological target: DuoMYC (5) (synthetic) (UniProt P01106)
[2] = biological target: monoMYC (4) (synthetic) (UniProt P01106)
[3] = biological target: DuoMYC (7) (synthetic) (UniProt P01106)
Sequence of DuoMYC (7) (synthetic) (P01106 whole entry): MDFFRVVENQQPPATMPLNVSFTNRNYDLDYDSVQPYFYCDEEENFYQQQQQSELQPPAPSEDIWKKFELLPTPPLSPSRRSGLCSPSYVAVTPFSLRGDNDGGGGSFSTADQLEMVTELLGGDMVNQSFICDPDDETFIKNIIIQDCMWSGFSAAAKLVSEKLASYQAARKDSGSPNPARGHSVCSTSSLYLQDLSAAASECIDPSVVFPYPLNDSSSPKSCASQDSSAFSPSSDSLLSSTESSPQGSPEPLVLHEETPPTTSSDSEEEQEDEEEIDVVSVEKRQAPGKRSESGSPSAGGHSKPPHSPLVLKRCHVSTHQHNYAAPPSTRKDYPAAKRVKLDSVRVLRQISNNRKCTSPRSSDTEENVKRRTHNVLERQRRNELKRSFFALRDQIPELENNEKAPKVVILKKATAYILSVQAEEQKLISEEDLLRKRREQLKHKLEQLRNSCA

Sequence of monoMYC (4) (synthetic) (P01106 365-423): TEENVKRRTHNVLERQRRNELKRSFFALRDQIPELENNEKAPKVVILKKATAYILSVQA
Sequence of DuoMYC (5) (synthetic) (P01106 365-423): as above

Sequence: ACCCCACCACGTGGTGCCT (double strand) [E-Box DNA]
- Kd [1]: 118 nM
- Kd [2]: 969 nM
- Kd [3]: 174 nM
